Results published in the supplement of paper PMC9112550, “Optimization of the antimicrobial peptide Bac7 by deep mutational scanning” (BMC Biology, 2022).

Test system: Escherichia coli TOP10
Test: shrunken log2 fold change of peptide-encoding DNA abundance (4.5 h post-induction vs induction); higher = less antimicrobial activity (less host growth inhibition)
Conditions: time post-induction: 4.5 h; library: site-saturation at positions 5, 18, 19, 20
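Further: peptides expressed intracellularly from a pBAD plasmid library in pooled LB shake-flask culture, induced with 0.3% L-arabinose, DNA abundance read by NGS, three biological replicates, DESeq2 with apeglm shrinkage.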

Going from RRIRTRPPRLPRPRPRPGEEPRP to RRIRERPPRLPRPRPRPRDQPRP, the “shrunken log2 fold change” value rises from -0.00249 to 0.424.

Going from RRIRHRPPRLPRPRPRPLGLPRP to RRIRERPPRLPRPRPRPFMLPRP, the “shrunken log2 fold change” value falls from 0.393 to -0.511.

RRIRKRPPRLPRPRPRPHCPPRP and RRIRQRPPRLPRPRPRPCGKPRP are within 0.2 log units of each other in “shrunken log2 fold change” value: -0.00424 for the first, -0.116 for the second.

RRIRERPPRLPRPRPRPQQCPRP and RRIRARPPRLPRPRPRPVHCPRP are within 0.2 log units of each other in “shrunken log2 fold change” value: -0.0909 for the first, 0.0301 for the second.

RRIRTRPPRLPRPRPRPVHFPRP and RRIRFRPPRLPRPRPRPWETPRP are within 0.2 log units of each other in “shrunken log2 fold change” value: 0.218 for the first, 0.0299 for the second.

Compared with RRIRHRPPRLPRPRPRPRNFPRP, RRIRLRPPRLPRPRPRPQIPPRP is lower in “shrunken log2 fold change” value: 0.134 for the first, -0.273 for the second.

First: RRIRHRPPRLPRPRPRPHDIPRP
Second: RRIRPRPPRLPRPRPRPDRLPRP
The “shrunken log2 fold change” value of the first is lower: 0.0564 for the first, 0.48 for the second.

RRIRSRPPRLPRPRPRPPMTPRP and RRIRHRPPRLPRPRPRPTQVPRP are within 0.2 log units of each other in “shrunken log2 fold change” value: 0.243 for the first, 0.172 for the second.

Going from RRIRCRPPRLPRPRPRPIEEPRP to RRIRFRPPRLPRPRPRPTSHPRP, the “shrunken log2 fold change” value falls from 0.008 to -0.193.

RRIRFRPPRLPRPRPRPKVLPRP and RRIRTRPPRLPRPRPRPLHDPRP are within 0.2 log units of each other in “shrunken log2 fold change” value: -0.128 for the first, -0.21 for the second.

Compared with RRIRCRPPRLPRPRPRPRMNPRP, RRIRARPPRLPRPRPRPIGVPRP is higher in “shrunken log2 fold change” value: -0.096 for the first, 0.892 for the second.

RRIRDRPPRLPRPRPRPLRLPRP and RRIRDRPPRLPRPRPRPGLYPRP are within 0.2 log units of each other in “shrunken log2 fold change” value: 0.0919 for the first, 0.199 for the second.

RRIRQRPPRLPRPRPRPVQFPRP and RRIRDRPPRLPRPRPRPDNEPRP are within 0.2 log units of each other in “shrunken log2 fold change” value: -0.0919 for the first, -0.0213 for the second.

Compared with RRIRNRPPRLPRPRPRPREMPRP, RRIRERPPRLPRPRPRPNSHPRP is lower in “shrunken log2 fold change” value: 0.0274 for the first, -0.8 for the second.

First: RRIRERPPRLPRPRPRPRHGPRP
Second: RRIRYRPPRLPRPRPRPDLRPRP
The “shrunken log2 fold change” value of the first is higher: -0.467 for the first, -1.03 for the second.

First: RRIRDRPPRLPRPRPRPKLAPRP
Second: RRIRQRPPRLPRPRPRPQNHPRP
The “shrunken log2 fold change” value of the first is higher: 0.271 for the first, -0.481 for the second.

Compared with RRIRIRPPRLPRPRPRPYSKPRP, RRIRTRPPRLPRPRPRPFIQPRP is higher in “shrunken log2 fold change” value: -1.2 for the first, -0.312 for the second.

RRIRVRPPRLPRPRPRPSQDPRP and RRIRNRPPRLPRPRPRPCRCPRP are within 0.2 log units of each other in “shrunken log2 fold change” value: -0.221 for the first, -0.307 for the second.

Going from RRIRPRPPRLPRPRPRPFKCPRP to RRIRRRPPRLPRPRPRPEAAPRP, the “shrunken log2 fold change” value rises from -0.214 to 1.31.

Compared with RRIRGRPPRLPRPRPRPAGKPRP, RRIRQRPPRLPRPRPRPNDRPRP is lower in “shrunken log2 fold change” value: 0.338 for the first, -0.16 for the second.

Going from RRIRWRPPRLPRPRPRPNNYPRP to RRIRSRPPRLPRPRPRPTLCPRP, the “shrunken log2 fold change” value rises from -0.571 to 0.0788.

Going from RRIRLRPPRLPRPRPRPGVCPRP to RRIRFRPPRLPRPRPRPHEMPRP, the “shrunken log2 fold change” value falls from 0.195 to -0.0108.

First: RRIRQRPPRLPRPRPRPNTRPRP
Second: RRIRFRPPRLPRPRPRPYDAPRP
The “shrunken log2 fold change” value of the first is higher: -0.0754 for the first, -1.06 for the second.

First: RRIRPRPPRLPRPRPRPKAYPRP
Second: RRIRNRPPRLPRPRPRPWFVPRP
The “shrunken log2 fold change” value of the first is higher: -0.029 for the first, -0.429 for the second.

RRIRCRPPRLPRPRPRPFDWPRP and RRIRDRPPRLPRPRPRPAASPRP are within 0.2 log units of each other in “shrunken log2 fold change” value: -0.0737 for the first, 0.049 for the second.

Going from RRIRLRPPRLPRPRPRPMWVPRP to RRIRARPPRLPRPRPRPPTVPRP, the “shrunken log2 fold change” value rises from -0.314 to 0.468.

RRIRRRPPRLPRPRPRPWFFPRP and RRIRLRPPRLPRPRPRPNLRPRP are within 0.2 log units of each other in “shrunken log2 fold change” value: 0.08 for the first, -0.0377 for the second.

Compared with RRIRARPPRLPRPRPRPIASPRP, RRIRDRPPRLPRPRPRPRSDPRP is higher in “shrunken log2 fold change” value: -0.0816 for the first, 0.514 for the second.

Compared with RRIRRRPPRLPRPRPRPIIGPRP, RRIRDRPPRLPRPRPRPTVYPRP is lower in “shrunken log2 fold change” value: 0.327 for the first, 0.12 for the second.

First: RRIRLRPPRLPRPRPRPRVFPRP
Second: RRIRIRPPRLPRPRPRPIMAPRP
The “shrunken log2 fold change” value of the first is higher: -0.0171 for the first, -0.286 for the second.

Going from RRIRTRPPRLPRPRPRPYIMPRP to RRIRIRPPRLPRPRPRPYMMPRP, the “shrunken log2 fold change” value falls from -0.753 to -1.26.

RRIRERPPRLPRPRPRPGVCPRP and RRIRGRPPRLPRPRPRPCHNPRP are within 0.2 log units of each other in “shrunken log2 fold change” value: 0.155 for the first, 0.033 for the second.

First: RRIRKRPPRLPRPRPRPAMDPRP
Second: RRIRWRPPRLPRPRPRPIEFPRP
The “shrunken log2 fold change” value of the first is higher: 0.231 for the first, -0.0119 for the second.

Going from RRIRHRPPRLPRPRPRPLDKPRP to RRIRRRPPRLPRPRPRPRFVPRP, the “shrunken log2 fold change” value rises from -0.0374 to 0.375.

RRIRPRPPRLPRPRPRPWVTPRP and RRIRDRPPRLPRPRPRPKHRPRP are within 0.2 log units of each other in “shrunken log2 fold change” value: -0.00388 for the first, 0.114 for the second.

Compared with RRIRCRPPRLPRPRPRPWHTPRP, RRIRRRPPRLPRPRPRPMDEPRP is higher in “shrunken log2 fold change” value: -0.261 for the first, 0.0223 for the second.

Going from RRIRVRPPRLPRPRPRPSNEPRP to RRIRSRPPRLPRPRPRPTWEPRP, the “shrunken log2 fold change” value rises from -0.775 to 0.187.

With RRIRKRPPRLPRPRPRPHKFPRP the “shrunken log2 fold change” value was 0.0822.
